Data published in the supplement of paper PMC9876800.

System: peptide library, one residue held at a place counted from the S/T acceptor
Experiment: relative phosphorylation of the sub-library (ratio to the mean residue at this position); human; higher = residue favoured
Method in brief: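 Spots on streptavidin membranes were phosphorimaged and quantified by densitometry to measure phosphorylation of biotinylated degenerate peptide sub-libraries by purified recombinant kinases, human or orthologue constructs. The reactions ran in 384-well plates for 90 min under kinase-specific conditions, with peptides at 50 μM and 50 μM ATP spiked with γ-32P-ATP. Relative sub-library phosphorylation is the ratio to the mean residue at that position.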

Chain of PAK3, construct: Full length (O75914 whole entry, looked up): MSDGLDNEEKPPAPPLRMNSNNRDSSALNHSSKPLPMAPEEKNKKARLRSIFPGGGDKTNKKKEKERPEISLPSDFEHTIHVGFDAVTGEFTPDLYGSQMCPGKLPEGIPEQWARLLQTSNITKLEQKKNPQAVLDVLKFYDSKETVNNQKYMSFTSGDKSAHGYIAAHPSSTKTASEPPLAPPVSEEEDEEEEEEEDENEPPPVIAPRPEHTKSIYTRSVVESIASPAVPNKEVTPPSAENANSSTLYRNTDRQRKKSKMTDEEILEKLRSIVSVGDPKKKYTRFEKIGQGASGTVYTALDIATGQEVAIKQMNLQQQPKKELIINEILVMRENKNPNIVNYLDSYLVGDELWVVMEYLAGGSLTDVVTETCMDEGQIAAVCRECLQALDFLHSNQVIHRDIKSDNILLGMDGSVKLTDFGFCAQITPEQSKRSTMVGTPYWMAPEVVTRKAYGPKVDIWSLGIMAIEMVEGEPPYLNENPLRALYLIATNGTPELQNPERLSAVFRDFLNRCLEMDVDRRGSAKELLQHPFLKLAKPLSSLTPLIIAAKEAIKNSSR
Chain of PAK2, construct: aa3-end (Q13177 3-524, looked up): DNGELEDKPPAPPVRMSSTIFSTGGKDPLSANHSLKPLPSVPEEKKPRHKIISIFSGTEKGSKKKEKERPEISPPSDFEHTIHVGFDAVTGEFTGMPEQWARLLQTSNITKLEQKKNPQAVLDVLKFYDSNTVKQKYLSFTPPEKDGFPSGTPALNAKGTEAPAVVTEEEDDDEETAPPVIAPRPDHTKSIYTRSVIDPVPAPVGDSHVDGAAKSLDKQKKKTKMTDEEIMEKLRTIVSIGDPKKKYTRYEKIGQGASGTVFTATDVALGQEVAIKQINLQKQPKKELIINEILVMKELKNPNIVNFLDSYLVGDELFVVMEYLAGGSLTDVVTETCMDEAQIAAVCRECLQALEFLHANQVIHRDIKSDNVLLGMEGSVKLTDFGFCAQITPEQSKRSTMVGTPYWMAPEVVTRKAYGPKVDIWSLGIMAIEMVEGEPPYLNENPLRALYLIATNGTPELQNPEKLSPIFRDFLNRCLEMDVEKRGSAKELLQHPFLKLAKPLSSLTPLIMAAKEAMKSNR
Chain of PAK1, construct: aa150-end (Q13153 150-545, looked up): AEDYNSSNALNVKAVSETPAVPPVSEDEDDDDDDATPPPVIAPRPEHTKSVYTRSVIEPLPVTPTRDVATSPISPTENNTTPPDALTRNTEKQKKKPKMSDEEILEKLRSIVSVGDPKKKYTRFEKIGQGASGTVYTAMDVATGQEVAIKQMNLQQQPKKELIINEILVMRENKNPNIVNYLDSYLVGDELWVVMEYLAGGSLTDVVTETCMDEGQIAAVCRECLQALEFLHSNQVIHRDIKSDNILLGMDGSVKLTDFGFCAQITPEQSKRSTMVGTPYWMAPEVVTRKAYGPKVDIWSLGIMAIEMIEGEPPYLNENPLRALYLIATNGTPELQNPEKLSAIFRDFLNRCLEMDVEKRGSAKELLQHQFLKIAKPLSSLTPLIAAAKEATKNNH

PAK1, construct: aa150-end (from UniProt Q13153)
relative phosphorylation
Conditions | at +1 | at +2 | at +3 | at +4 | at -1 | at -2 | at -3 | at -4 | at -5
A fixed | 0.877 | 1.16 | 0.875 | 1.05 | 0.946 | 0.789 | 0.87 | 1.27 | 1.39
D fixed | 0.338 | 0.472 | 0.959 | 1.32 | 0.592 | 0.203 | 0.558 | 0.825 | 0.785
E fixed | 0.428 | 0.398 | 1.09 | 1.29 | 0.559 | 0.206 | 0.495 | 0.85 | 0.676
F fixed | 0.993 | 1.14 | 1.33 | 0.741 | 0.696 | 0.346 | 0.464 | 0.633 | 0.68
G fixed | 0.895 | 0.726 | 1.22 | 1.24 | 0.782 | 0.526 | 0.869 | 1.4 | 1.44
H fixed | 1.09 | 1.6 | 1.17 | 0.97 | 1.35 | 1.37 | 1.4 | 1.14 | 1.16
I fixed | 1.03 | 1.1 | 0.826 | 0.773 | 0.564 | 0.551 | 0.41 | 0.529 | 0.55
K fixed | 1.18 | 0.604 | 0.775 | 1.08 | 1.72 | 1.32 | 2.34 | 1.71 | 1.88
L fixed | 0.969 | 1.09 | 1.04 | 0.77 | 0.821 | 0.374 | 0.415 | 0.547 | 0.53
M fixed | 1.58 | 1.02 | 0.913 | 0.783 | 0.927 | 0.36 | 0.485 | 0.744 | 0.587
N fixed | 0.895 | 0.885 | 0.971 | 1.11 | 1.19 | 0.518 | 0.965 | 1.01 | 1.03
P fixed | 0.228 | 0.716 | 1.03 | 1.4 | 0.646 | 1.08 | 0.823 | 1.24 | 1.16
Q fixed | 1.3 | 0.766 | 0.897 | 1.2 | 1.11 | 0.673 | 0.952 | 1.08 | 0.964
R fixed | 1.46 | 0.793 | 0.841 | 0.95 | 2.22 | 6.99 | 4.23 | 1.99 | 2.04
V fixed | 0.971 | 0.925 | 0.797 | 0.851 | 0.766 | 0.724 | 0.431 | 0.624 | 0.707
W fixed | 1.57 | 0.978 | 1.03 | 0.806 | 0.886 | 0.369 | 0.703 | 0.756 | 0.668
Y fixed | 1.19 | 2.62 | 1.22 | 0.652 | 1.22 | 0.6 | 0.594 | 0.672 | 0.762
pThr fixed | 0.668 | 0.676 | 0.877 | 1.4 | 0.439 | 0.503 | 0.568 | 0.857 | 0.666
pTyr fixed | 0.886 | 4.31 | 1.28 | 1.09 | 0.672 | 0.392 | 0.853 | 0.808 | 0.675

PAK2, construct: aa3-end (from UniProt Q13177)
relative phosphorylation
Conditions | at +1 | at +2 | at +3 | at +4 | at -1 | at -2 | at -3 | at -4 | at -5
A fixed | 0.794 | 0.823 | 0.781 | 0.846 | 0.808 | 0.606 | 0.786 | 0.97 | 1.05
D fixed | 0.359 | 0.391 | 0.855 | 0.98 | 0.562 | 0.197 | 0.506 | 0.844 | 0.724
E fixed | 0.432 | 0.37 | 0.921 | 0.988 | 0.522 | 0.222 | 0.469 | 0.891 | 0.602
F fixed | 1.18 | 1.76 | 1.77 | 0.95 | 0.956 | 0.464 | 0.699 | 0.729 | 0.803
G fixed | 0.916 | 0.643 | 0.868 | 1.01 | 0.668 | 0.479 | 0.891 | 1.06 | 1.2
H fixed | 0.997 | 1.4 | 1.14 | 1.07 | 1.29 | 1.44 | 1.2 | 1.09 | 1.16
I fixed | 1.22 | 1.22 | 1.03 | 0.87 | 0.796 | 0.606 | 0.583 | 0.673 | 0.741
K fixed | 1.01 | 0.452 | 0.623 | 0.938 | 1.41 | 1.12 | 1.78 | 1.58 | 1.81
L fixed | 1.16 | 1.37 | 1.13 | 1.02 | 1.18 | 0.391 | 0.561 | 0.729 | 0.707
M fixed | 1.64 | 1.14 | 1.07 | 1.07 | 1.17 | 0.416 | 0.599 | 0.885 | 0.672
N fixed | 0.738 | 0.734 | 0.847 | 1.22 | 1.07 | 0.503 | 0.977 | 1.02 | 1.04
P fixed | 0.222 | 0.625 | 0.903 | 1.38 | 0.723 | 0.935 | 0.894 | 0.944 | 0.926
Q fixed | 1.06 | 0.797 | 0.754 | 1.08 | 1.08 | 0.572 | 0.827 | 0.901 | 0.889
R fixed | 1.19 | 0.658 | 0.657 | 0.821 | 1.72 | 7.1 | 3.91 | 2.26 | 2.31
V fixed | 1.2 | 1.01 | 0.906 | 0.787 | 0.763 | 0.642 | 0.557 | 0.688 | 0.694
W fixed | 1.65 | 1.18 | 1.33 | 1.15 | 1.03 | 0.485 | 0.954 | 0.887 | 0.801
Y fixed | 1.23 | 2.42 | 1.42 | 0.824 | 1.25 | 0.821 | 0.801 | 0.84 | 0.858
pThr fixed | 0.66 | 0.551 | 0.597 | 1.12 | 0.392 | 0.495 | 0.74 | 1.04 | 0.931
pTyr fixed | 0.822 | 2.1 | 1.11 | 0.856 | 0.652 | 0.379 | 0.8 | 0.71 | 0.876

PAK3, construct: Full length (from UniProt O75914)
relative phosphorylation
Conditions | at +1 | at +2 | at +3 | at +4 | at -1 | at -2 | at -3 | at -4 | at -5
A fixed | 0.949 | 1.12 | 1.05 | 1.07 | 0.974 | 0.862 | 0.985 | 1.32 | 1.33
D fixed | 0.291 | 0.36 | 0.768 | 0.986 | 0.485 | 0.178 | 0.437 | 0.64 | 0.604
E fixed | 0.356 | 0.297 | 0.701 | 0.89 | 0.463 | 0.19 | 0.415 | 0.665 | 0.547
F fixed | 1.14 | 1.37 | 1.37 | 0.847 | 0.752 | 0.471 | 0.59 | 0.732 | 0.876
G fixed | 0.706 | 0.615 | 0.97 | 1.13 | 0.716 | 0.449 | 0.825 | 1.32 | 1.24
H fixed | 1.09 | 1.57 | 1.2 | 1.14 | 1.31 | 1.61 | 1.32 | 1.29 | 1.1
I fixed | 1.27 | 1.19 | 0.983 | 0.777 | 0.701 | 0.624 | 0.494 | 0.629 | 0.643
K fixed | 1.07 | 0.645 | 0.764 | 1.03 | 1.61 | 1.3 | 2.22 | 1.28 | 1.81
L fixed | 1.1 | 1.17 | 1.12 | 0.905 | 1.11 | 0.439 | 0.558 | 0.689 | 0.636
M fixed | 1.54 | 1.04 | 1.02 | 0.933 | 1.12 | 0.48 | 0.693 | 0.873 | 0.681
N fixed | 0.749 | 0.728 | 0.847 | 1.03 | 1.04 | 0.584 | 0.825 | 0.966 | 0.863
P fixed | 0.21 | 0.655 | 0.976 | 1.45 | 0.611 | 0.817 | 0.823 | 1.14 | 1.09
Q fixed | 1.09 | 0.729 | 0.886 | 1.17 | 1 | 0.715 | 0.878 | 1.05 | 0.93
R fixed | 1.35 | 0.853 | 0.819 | 0.933 | 2.06 | 6.37 | 3.73 | 1.86 | 2.24
V fixed | 1.12 | 1.11 | 0.955 | 0.908 | 0.914 | 0.748 | 0.512 | 0.756 | 0.757
W fixed | 1.66 | 1.11 | 1.26 | 1.04 | 0.976 | 0.423 | 0.907 | 0.901 | 0.812
Y fixed | 1.3 | 2.44 | 1.3 | 0.753 | 1.16 | 0.747 | 0.785 | 0.89 | 0.852
pThr fixed | 0.479 | 0.471 | 0.632 | 0.99 | 0.367 | 0.411 | 0.546 | 0.754 | 0.574
pTyr fixed | 0.635 | 2.43 | 0.9 | 0.76 | 0.605 | 0.323 | 0.743 | 0.654 | 0.619

PKN2, construct: aa501-984 (from UniProt Q16513)
relative phosphorylation
Conditions | at +1 | at +2 | at +3 | at +4 | at -1 | at -2 | at -3 | at -4 | at -5
A fixed | 0.532 | 0.768 | 0.837 | 0.925 | 0.905 | 1.1 | 0.867 | 1.11 | 0.963
D fixed | 0.318 | 0.322 | 0.543 | 0.614 | 0.962 | 0.35 | 0.321 | 0.59 | 0.503
E fixed | 0.293 | 0.32 | 0.545 | 0.609 | 0.719 | 0.357 | 0.347 | 0.669 | 0.522
F fixed | 2.82 | 0.467 | 0.753 | 0.535 | 0.602 | 0.671 | 0.464 | 0.749 | 0.806
G fixed | 0.43 | 0.554 | 0.938 | 1.17 | 1.32 | 0.949 | 0.823 | 1.19 | 1.04
H fixed | 0.805 | 1.63 | 1.22 | 1.25 | 1.16 | 1.43 | 1.49 | 1.16 | 0.946
I fixed | 1.34 | 0.836 | 0.888 | 0.877 | 0.514 | 0.569 | 0.514 | 0.861 | 1.45
K fixed | 1.33 | 2.49 | 1.85 | 1.94 | 1.66 | 2.17 | 2.37 | 1.82 | 1.43
L fixed | 1.25 | 0.927 | 0.946 | 0.785 | 0.833 | 0.571 | 0.61 | 0.804 | 1.34
M fixed | 1.84 | 0.788 | 0.839 | 0.804 | 0.825 | 0.852 | 0.643 | 0.928 | 0.723
N fixed | 0.75 | 1.02 | 0.861 | 0.994 | 1.37 | 1.13 | 0.736 | 0.938 | 0.78
P fixed | 0.252 | 0.471 | 0.557 | 1.2 | 1.06 | 0.538 | 0.681 | 0.831 | 0.99
Q fixed | 0.82 | 0.758 | 0.998 | 0.998 | 1.04 | 1.11 | 0.898 | 1.09 | 0.89
R fixed | 1.44 | 3.42 | 2.22 | 1.7 | 1.71 | 2.83 | 4.31 | 1.59 | 1.84
V fixed | 0.927 | 0.8 | 0.875 | 0.787 | 0.74 | 0.752 | 0.512 | 0.985 | 1.23
W fixed | 0.855 | 0.536 | 0.979 | 0.987 | 0.775 | 0.801 | 0.661 | 0.871 | 0.723
Y fixed | 0.997 | 0.885 | 1.15 | 0.825 | 0.811 | 0.82 | 0.742 | 0.809 | 0.824
pThr fixed | 1.05 | 1.15 | 0.818 | 0.683 | 0.799 | 0.836 | 0.743 | 1.11 | 0.683
pTyr fixed | 0.572 | 0.884 | 0.864 | 0.666 | 0.856 | 0.711 | 0.977 | 0.741 | 0.863
